According to paper PMC9982585:

Target: Type I Human Collagen (human) (UniProt P02452)
Assay: fluorescence polarisation; Cy5.5-labelled insulin formulated in saline (control) or in aCH (SPADE), mixed with a Type I human collagen solution at a predetermined w/w ratio; read immediately after mixing on a Molecular Devices Flexstation 3 plate reader

Chain of UniProt P02452 (P02452 162-1218, chain 1 of 2): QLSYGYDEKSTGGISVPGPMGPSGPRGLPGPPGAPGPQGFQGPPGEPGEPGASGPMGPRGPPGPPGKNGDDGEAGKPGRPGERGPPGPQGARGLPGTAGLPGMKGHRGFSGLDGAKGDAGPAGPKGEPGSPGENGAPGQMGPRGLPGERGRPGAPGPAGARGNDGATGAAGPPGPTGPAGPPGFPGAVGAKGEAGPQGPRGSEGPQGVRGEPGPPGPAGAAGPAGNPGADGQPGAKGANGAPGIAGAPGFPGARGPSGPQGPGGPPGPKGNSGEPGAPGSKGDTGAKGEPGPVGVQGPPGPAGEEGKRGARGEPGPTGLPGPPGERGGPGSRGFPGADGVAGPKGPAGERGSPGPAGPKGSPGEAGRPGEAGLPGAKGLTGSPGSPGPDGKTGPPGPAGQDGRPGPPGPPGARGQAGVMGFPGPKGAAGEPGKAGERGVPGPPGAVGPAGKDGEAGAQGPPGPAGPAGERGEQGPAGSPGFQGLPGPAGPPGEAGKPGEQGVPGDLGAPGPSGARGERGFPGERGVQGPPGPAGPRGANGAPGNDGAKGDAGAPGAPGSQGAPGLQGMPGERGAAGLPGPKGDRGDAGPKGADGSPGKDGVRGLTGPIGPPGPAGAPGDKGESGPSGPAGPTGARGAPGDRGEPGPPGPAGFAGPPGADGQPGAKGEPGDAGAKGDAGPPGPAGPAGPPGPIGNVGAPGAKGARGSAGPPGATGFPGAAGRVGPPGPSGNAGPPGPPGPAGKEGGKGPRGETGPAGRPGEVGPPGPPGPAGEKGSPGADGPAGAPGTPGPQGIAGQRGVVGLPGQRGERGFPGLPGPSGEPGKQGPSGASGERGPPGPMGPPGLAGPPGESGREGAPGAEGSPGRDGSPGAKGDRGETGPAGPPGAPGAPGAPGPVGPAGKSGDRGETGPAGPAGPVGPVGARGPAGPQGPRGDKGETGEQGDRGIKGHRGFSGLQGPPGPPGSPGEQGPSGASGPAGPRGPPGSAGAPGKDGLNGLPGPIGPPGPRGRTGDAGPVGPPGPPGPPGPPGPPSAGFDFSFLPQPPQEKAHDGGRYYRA
Chain of UniProt P02452 (P08123 80-1119, chain 2 of 2, further chain): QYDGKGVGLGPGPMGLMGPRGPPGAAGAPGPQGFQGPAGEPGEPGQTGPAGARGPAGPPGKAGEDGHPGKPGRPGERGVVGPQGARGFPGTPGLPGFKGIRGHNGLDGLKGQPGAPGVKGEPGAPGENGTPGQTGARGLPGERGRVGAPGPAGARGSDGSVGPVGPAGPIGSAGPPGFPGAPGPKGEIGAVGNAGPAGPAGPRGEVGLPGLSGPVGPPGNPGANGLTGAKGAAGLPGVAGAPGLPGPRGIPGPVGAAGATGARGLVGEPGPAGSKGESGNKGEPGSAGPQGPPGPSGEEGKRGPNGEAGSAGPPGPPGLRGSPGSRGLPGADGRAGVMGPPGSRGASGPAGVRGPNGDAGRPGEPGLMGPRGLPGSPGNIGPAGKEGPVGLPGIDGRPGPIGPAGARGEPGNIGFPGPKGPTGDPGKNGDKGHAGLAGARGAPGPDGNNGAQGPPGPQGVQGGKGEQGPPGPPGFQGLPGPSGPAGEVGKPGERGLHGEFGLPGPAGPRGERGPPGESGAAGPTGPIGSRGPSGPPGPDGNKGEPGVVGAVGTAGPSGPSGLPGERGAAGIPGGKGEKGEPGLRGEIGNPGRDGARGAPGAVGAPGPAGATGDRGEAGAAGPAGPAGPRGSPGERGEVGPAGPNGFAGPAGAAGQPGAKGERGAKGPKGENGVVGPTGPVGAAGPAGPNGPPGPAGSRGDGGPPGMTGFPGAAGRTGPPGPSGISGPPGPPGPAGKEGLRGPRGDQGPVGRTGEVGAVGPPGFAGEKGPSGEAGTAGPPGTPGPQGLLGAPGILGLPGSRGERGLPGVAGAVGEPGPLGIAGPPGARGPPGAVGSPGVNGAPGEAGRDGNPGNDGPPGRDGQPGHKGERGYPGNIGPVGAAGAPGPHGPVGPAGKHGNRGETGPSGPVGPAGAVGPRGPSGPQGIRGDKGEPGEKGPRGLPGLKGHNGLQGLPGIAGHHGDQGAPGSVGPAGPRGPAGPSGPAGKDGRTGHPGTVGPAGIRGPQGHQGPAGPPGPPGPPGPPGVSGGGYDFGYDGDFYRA

Substance: Cy 5.5 fluorescently-labeled insulin (ligand)
- average polarisation of the saline control relative to the aCH (SPADE) formulation: 1.5 fold
